No end group written: not given here.
Columns and labels:
[1] = molecular target: T1, IXaR333Q:A2 subunit interaction (Homo sapiens, UniProt P00740, R379Q); test: A2 558-565 peptide inhibition of IXaR333Q:A2 subunit interaction (factor X activation, tenase system); assay type: biochemical
T1 construct: made in house
Description: (§1) Determination of the Apparent Kdpeptide of Binding of Each Factor IXa to the A2 558-565 Peptide.
(§2) The apparent Kd (termed Kdpeptide) for binding of each factor IXa to the A2 558-565 peptide was determined by its ability to inhibit the respective IXa:A2 subunit interaction as measured by reduction in the rate of factor X activation in the tenase system. The reaction mixtures for both IXaWT and IXaPCEGF1 contained 100 nM factor IXa, 30 nM A2 subunit, 250 nM factor X, and 25 μM PL in TBS/BSA, pH 7.5 with 5 mM CaCl2. The reaction mixture for IXaR333Q contained 300 nM factor IXa instead of 100 nM used for IXaWT or IXaPCEGF1; concentrations of other components were the same. The amount of factor Xa generated was determined by hydrolysis of S-2222. The IC50 values were obtained using Eq. 2. Here, y is the rate of factor Xa formation in the presence of a given concentration of the A2 558-565 peptide represented by x, and a is the maximum rate of factor Xa formation in the absence of the A2 peptide. Eq. 3 was then used to obtain the apparent Kdpeptide values. In this context, A is the concentration of IXaWT, IXaPCEGF1, or IXaR333Q, and EC50 is the apparent KdA2 for the respective IXa:A2 subunit interaction.

[2] = molecular target: IXaPCEGF1:A2 subunit interaction; test: A2 558-565 peptide inhibition of IXaPCEGF1:A2 subunit interaction (factor X activation, tenase system); assay type: biochemical, human; details: 100 nM IXaPCEGF1, 30 nM A2 subunit, 250 nM factor X, 25 μM PL (FIG. 5)
Description: as §1, §2

[3] = system: factor Xa generation; details: Fay et al., 1994; Fay and Koshibu, 1998; cited from earlier work
[4] = molecular target: T2, factor VIIIa (Homo sapiens, UniProt P00451); test: EC50 for factor IXa-factor VIIIa interaction in the tenase complex; assay type: biochemical; details: 0.07 nM factor VIIIa, 480 nM factor X, 10 μM PL, 5 mM CaCl2; read-out: EC50 (functional Kd) for factor IXa-factor VIIIa interaction
T2 construct: to yield factor VIIIa, a heterotrimer composed of A1, A2 and A3-C1-C2 subunits; cleaved by thrombin at R372-S373, R740-S741, and R1689-S1690 to yield factor VIIIa
T2 sequence (P00451 20-391): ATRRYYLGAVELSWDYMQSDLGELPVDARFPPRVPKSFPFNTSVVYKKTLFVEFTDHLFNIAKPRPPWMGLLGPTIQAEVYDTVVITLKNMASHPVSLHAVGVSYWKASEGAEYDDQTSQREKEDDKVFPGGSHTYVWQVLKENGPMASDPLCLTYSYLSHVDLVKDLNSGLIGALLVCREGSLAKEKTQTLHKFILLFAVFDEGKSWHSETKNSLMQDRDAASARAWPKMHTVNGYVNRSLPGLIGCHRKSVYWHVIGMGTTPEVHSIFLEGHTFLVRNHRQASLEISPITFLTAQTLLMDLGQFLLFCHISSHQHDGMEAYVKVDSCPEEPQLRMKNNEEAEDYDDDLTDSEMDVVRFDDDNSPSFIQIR
T2 sequence (P00451 392-759): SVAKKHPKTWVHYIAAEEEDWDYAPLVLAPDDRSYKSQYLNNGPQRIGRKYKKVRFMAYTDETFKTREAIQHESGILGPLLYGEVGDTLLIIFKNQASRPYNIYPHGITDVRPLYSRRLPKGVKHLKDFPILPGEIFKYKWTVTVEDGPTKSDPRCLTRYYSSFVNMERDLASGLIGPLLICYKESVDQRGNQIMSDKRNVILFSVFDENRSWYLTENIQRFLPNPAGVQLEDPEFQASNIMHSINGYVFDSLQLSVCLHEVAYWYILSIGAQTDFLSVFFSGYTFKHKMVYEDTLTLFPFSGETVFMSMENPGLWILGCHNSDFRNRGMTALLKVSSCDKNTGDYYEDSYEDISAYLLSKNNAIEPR
T2 sequence (P00451 1709-2351): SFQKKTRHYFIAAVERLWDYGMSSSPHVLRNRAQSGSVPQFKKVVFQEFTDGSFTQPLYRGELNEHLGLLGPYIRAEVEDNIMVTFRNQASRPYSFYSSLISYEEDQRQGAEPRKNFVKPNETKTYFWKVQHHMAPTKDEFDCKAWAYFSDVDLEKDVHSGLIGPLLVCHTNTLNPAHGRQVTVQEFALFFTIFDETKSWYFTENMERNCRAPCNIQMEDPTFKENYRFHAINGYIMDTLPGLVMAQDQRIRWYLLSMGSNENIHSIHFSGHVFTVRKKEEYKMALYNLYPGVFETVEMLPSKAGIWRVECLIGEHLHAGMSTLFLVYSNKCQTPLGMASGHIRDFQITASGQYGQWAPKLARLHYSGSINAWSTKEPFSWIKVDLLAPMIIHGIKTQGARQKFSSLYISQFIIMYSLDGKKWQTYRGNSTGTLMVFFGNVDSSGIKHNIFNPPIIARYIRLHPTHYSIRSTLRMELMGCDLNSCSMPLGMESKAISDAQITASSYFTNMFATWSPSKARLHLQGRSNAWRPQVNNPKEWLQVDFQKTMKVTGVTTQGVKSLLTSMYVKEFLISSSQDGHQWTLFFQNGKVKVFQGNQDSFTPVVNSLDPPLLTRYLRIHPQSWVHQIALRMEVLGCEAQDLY
Description: Determination of the EC50 of for Factor IXa-Factor VIIIa Interaction in the Tenase Complex
These experiments are performed with normal factor IXa in the presence of phospholipid (PL) vesicles. 50-μl reaction mixtures in TBS-BSA (50 mM Tris-HCl, pH 7.4, 1 mg/ml BSA) with 5 mM CaCl2 and 10 μM PL are prepared containing a fixed concentration of factor VIIIa (0.07 nM) and various concentrations of factor IXa (0-20 nM) at a constant concentration of factor X (480 nM), which is added last to initiate the reaction. The reaction is carried out at 37° C. for 30-120 seconds at which time 1 μl of 0.5 M EDTA is added to stop further generation of factor Xa. A 40 μl aliquot is added to a 0.1-mL quartz cuvette containing a synthetic substrate S-2222 in 75 μl of TBS-BSA, pH 7.4. The final concentration of S-2222 is 100 μM. The p-nitroaniline release is measured continuously (ΔA405/min) for up to 20 minutes (Mathur et al., 1997). Factor Xa generated is calculated from a standard curve constructed using factor Xa prepared by insolubilized Russell's viper venom. In control experiments, at each factor X concentration used, the rate of factor Xa generation is also measured at various concentrations of normal factor IXa in the absence of factor VIIIa; these control values are ˜5% of the experimental values in the presence of factor VIIIa and are subtracted before analysis of the data. […]

[5] = molecular target: T3, factor IXaWT (wild-type recombinant factor IX activated by factor XIa) (human, UniProt P00740 47-190; P00740 227-461, gamma-carboxyglutamic acid residues in the Gla domain (residues 1-40, 12 Gla; normal Gla content)); test: peptide inhibition of IXaWT:A2 in tenase assay (FIG. 5); IC50 converted by Cheng-Prusoff; apparent Kdpeptide
T3 construct: Two-chain, disulfide-linked protease; also called IXWT
Description: (§3) The amount of factor Xa generated was determined by hydrolysis of S-2222. The IC₅₀ values were obtained using Eq. 2. […] Eq. 3 was then used to obtain the apparent Kdpeptide values.
(§4) The Cheng and Prusoff relationship (Cheng and Prusoff, 1973; Craig, 1993) was then used to obtain apparent Kdpeptide values for each factor IXa protein.

[6] = molecular target: T4, factor IXaR333Q (factor IXa point mutant in which Arg333 is replaced by Gln) (human, UniProt P00740 47-190; P00740 227-461, gamma-carboxyglutamic acid residues in the Gla domain (normal Gla content)); test: peptide inhibition of IXaR333Q:A2 interaction; 300 nM IXa, 30 nM A2, 250 nM factor X; factor Xa generation (FIG. 5)
T4 construct: R333 is c165 in chymotrypsin numbering; also called IXR333Q
Description: (§5) Factor Xa generation was determined by S-2222 hydrolysis, and the curves represent best fit to the IC₅₀ four-parameter logistic equation (Eq. 2).
as §3

[7] = molecular target: factor IXaPCEGF1 (factor IXa replacement mutant in which the EGF1 domain is replaced by that of protein C) (human) (UniProt P04070); test: calculated from apparent Kdpeptide, against WT
[8] = molecular target: T4, factor IXaR333Q (factor IXa point …); test: peptide inhibition of IXaR333Q:A2 in tenase assay (FIG. 5); IC50 converted by Cheng-Prusoff; apparent Kdpeptide
Description: as §3

[9] = molecular target: factor IXaPCEGF1 (factor IXa replacement mutant in which the EGF1 domain is replaced by that of protein C) (human) (UniProt P04070); test: peptide inhibition of IXaPCEGF1:A2 in tenase assay (FIG. 5); IC50 converted by Cheng-Prusoff; apparent Kdpeptide
[10] = molecular target: T4, factor IXaR333Q (factor IXa point …); test: apparent Kdpeptide against that of WT
Excerpt: Eq. 3 was then used to obtain the apparent Kdpeptide values.
as §4

[11] = molecular target: T3, factor IXaWT (wild-type recombinant …); test: peptide inhibition of IXaWT:A2 interaction; 100 nM IXa, 30 nM A2, 250 nM factor X; factor Xa generation (FIG. 5)
Description: as §5, §3

[12] = molecular target: T4, factor IXaR333Q (factor IXa point …); test: peptide inhibition of IXa:A2 interaction; factor Xa generation (FIG. 5)
Description: as §5, §3

[13] = molecular target: factor IXaPCEGF1 (factor IXa replacement mutant in which the EGF1 domain is replaced by that of protein C) (human) (UniProt P04070); test: peptide inhibition of IXaPCEGF1:A2 interaction; 100 nM IXa, 30 nM A2, 250 nM factor X; factor Xa generation (FIG. 5)
[14] = molecular target: factor IXaPCEGF1 (factor IXa replacement mutant in which the EGF1 domain is replaced by that of protein C) (human) (UniProt P04070); test: calculated from apparent Kdpeptide (RT ln Kd, 298 K)
[15] = molecular target: factor IXaPCEGF1 (factor IXa replacement mutant in which the EGF1 domain is replaced by that of protein C) (human) (UniProt P04070); test: apparent Kdpeptide against that of WT

T4 sequence (P00740 47-190, change not shown, form in doubt, chain 1 of 2): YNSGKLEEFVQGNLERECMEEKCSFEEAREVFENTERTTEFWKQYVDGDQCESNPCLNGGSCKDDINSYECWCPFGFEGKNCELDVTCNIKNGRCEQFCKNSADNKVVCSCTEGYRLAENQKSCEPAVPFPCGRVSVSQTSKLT
T4 sequence (P00740 other isoform, or with tags, fused parts or gaps mutant, form in doubt, chain 2 of 2): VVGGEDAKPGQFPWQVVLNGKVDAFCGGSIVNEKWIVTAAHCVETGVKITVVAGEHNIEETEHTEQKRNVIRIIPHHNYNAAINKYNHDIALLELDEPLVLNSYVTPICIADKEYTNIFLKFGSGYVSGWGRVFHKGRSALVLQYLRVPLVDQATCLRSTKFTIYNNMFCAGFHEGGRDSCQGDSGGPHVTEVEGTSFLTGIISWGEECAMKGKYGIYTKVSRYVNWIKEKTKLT
T3 sequence (P00740 47-190, form in doubt, chain 1 of 2): as the sequence (P00740 47-190, change not shown, form in doubt, chain 1 of 2) above
T3 sequence (P00740 227-461, form in doubt, chain 2 of 2): as the sequence (P00740 other isoform, or with tags, fused parts or gaps mutant, form in doubt, chain 2 of 2) above, with Q153R counted along it
T1 sequence (P00740 47-191): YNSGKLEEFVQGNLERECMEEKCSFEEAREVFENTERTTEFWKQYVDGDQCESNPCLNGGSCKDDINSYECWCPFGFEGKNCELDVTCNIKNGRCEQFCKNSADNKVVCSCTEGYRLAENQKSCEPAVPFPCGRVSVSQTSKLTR
T1 sequence (P00740 227-461 R379Q): as the sequence (P00740 other isoform, or with tags, fused parts or gaps mutant, form in doubt, chain 2 of 2) above

In the case of SVDQRGNQ [A2 558-565 peptide], the “Fold higher IC50 for IXaR333Q:A2 than for IXaWT or IXaPCEGF1” value [1] is listed as about 9 fold, the IC50 [2] is listed as about 8 µM and the “Effect on factor Xa generation in purified systems” value [3] is listed as “inhibit factor Xa generation”.

Molecule “normal factor IXa: normal factor IXa used in the tenase complex of Example 2” has an EC50 [4] of about 0.0004 µM.

SVDQRGNQ [synthetic peptide corresponding to the A2 subunit residues 558-565 (Ser-Val-Asp-Gln-Arg-Gly-Asn-Gln)] gave a Kd [5] of 4 µM, an IC50 [6] of about 70 µM and a change in delta G° between the mutant and WT [7] of 0 kcal/mol. The Kd [8] was 62 µM, the Kd [9] was 4 µM and the “fold-change in apparent Kd (mutant/WT)” value [10] was 15 fold. The IC50 [11] was about 8 µM, the “fold higher IC50 than for IXaWT or IXaPCEGF1” value [12] was about 9 fold and the IC50 [13] was 8 µM. The Gibbs free energy (delta G° peptide) [14] was 7.36 kcal/mol and the fold-change in apparent Kd (mutant/WT) [15] was 1 fold.
